Laboratory results taken from the supplement of paper PMC10567573.
± gives the standard deviation.

Assay: protein stability index of a GFP-peptide fusion (GPS, HEK-293T) (PSI 1-6); higher = more stable
[1] = treatment: DMSO, c terminus: a fixed tail appended
[2] = treatment: MLN4924 1 uM, 8 h, c terminus: a fixed tail appended
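Note: 24-mer peptide tiles fused after GFP, lentivirally expressed, FACS-sorted into six equal bins by GFP/DsRed ratio, decoded by Illumina sequencing, PSI is the read-weighted mean bin number.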

Sequence	protein stability index [1]	protein stability index [2]	protein stability index (treatment: DMSO, c terminus: native)	protein stability index (treatment: MLN4924 1 uM, 8 h, c terminus: native)
PGGLTLEEHSLEQVQSMVVGEVLK [SPDEF]	3.34 ± 0.28	3.53 ± 0.38	–	–
TNAGFLQTESELQELSEVLELLSA [FAN1]	3.04 ± 0.21	3.03 ± 0.53	–	–
PDSELSPCIPPGFRNLVADRVLNY [SPAG8]	3.18 ± 0.23	3.34 ± 0.33	–	–
LDLMKEWIAHSEKLPRKVLQHVSE [SPACA9]	3 ± 0.36	3.67 ± 0.47	–	–
MKAKQEALVKEREKQLAKKEQSKE [FAM50A]	5.62 ± 0.24	5.55 ± 0.13	–	–
VGSGGATSGKLLLEADELCDDGGD [ZBTB22]	5.56 ± 0.22	5.55 ± 0.22	–	–
ALCLEVRPTYFEMKNEKLLSKASE [RNF180]	3.51 ± 0.21	3.67 ± 0.4	–	–
GRLGRRDEDAGLPRPVQLDETHPY [NEK8]	4.46 ± 0.066	4.7 ± 0.1	–	–
SQNSSLVQHERIHTGDKPYKCAEC [ZNF8]	4.58 ± 0.29	4.82 ± 0.28	–	–
DSQEAQSPGHSSAGQEGEDTLRRR [TOR1AIP2]	5.58 ± 0.26	5.45 ± 0.58	–	–
MEVGSGSRELSLRPSRSGAQQLEE [EID1]	5.43 ± 0.23	5.25 ± 0.35	–	–
DLEDPLGGLLSYDEGGITKQPPVT [FBF1]	4.41 ± 0.28	4.35 ± 0.43	–	–
KLGLGIDEDEVAAEEPNAAVPDEI [HSP90AB1]	5.8 ± 0.18	5.48 ± 0.24	–	–
ADISMIGQFGVGFYSAYLVAEKVV [HSP90AB1]	–	2.86 ± 0.44	–	–
NESLASLPLRVSFCPLSLWRWQLY [CLPTM1]	2.45 ± 0.41	2.18 ± 0.4	–	–
DRKGYMFDYEYDWIGKQLPTPVGA [CSNK1G3]	2.55 ± 0.23	2.62 ± 0.25	–	–
QAQDEVEQERRLSEARLSQRDLSP [FCHSD1]	5.46 ± 0.28	5.31 ± 0.24	–	–
EIRKKVLKIYNKREEDFPSLREYN [MNAT1]	2.45 ± 0.43	2.64 ± 0.51	–	–
QSSHYLQWILDKQDLLKERQKDLK [CCNC]	2.87 ± 0.36	3.16 ± 0.27	–	–
KPYDPPGEKMVAAKVKGEKLDKKL [ATF4]	5.12 ± 0.21	5.12 ± 0.056	–	–
PRPQSEESWDEEDKRNYPSLELDK [CHGB]	5.52 ± 0.25	5.44 ± 0.25	–	–
ELPDPLGGLLDEAMLDEISLMDLA [NFE2L1]	4.26 ± 0.54	4.55 ± 0.23	–	–

Sequence	protein stability index [1]	protein stability index [2]	protein stability index (treatment: DMSO, c terminus: native)	protein stability index (treatment: MLN4924 1 uM, 8 h, c terminus: native)
LESRIRDVHELFLQMAVLVEKQAD [STX11]	2.27 ± 0.35	2.37 ± 0.34	–	–
YGICREPVGLVMEYMETGSLEKLL [RIPK4]	2.29 ± 0.26	2.22 ± 0.4	–	–
GFIRHTVNKITFSEQCYYIFGDLC [DVL3]	3.11 ± 0.86	2.64 ± 0.16	–	–
RQHIPDTYLCERCQPRNLDKERAV [KMT2E]	2.81 ± 0.47	3.35 ± 0.15	–	–
GEARFLPKDLDPSLCTHLIYAFAG [CHIT1]	2.36 ± 0.27	2.44 ± 0.49	–	–
YINLLNYMDRFTVAGVLPDIEQFF [SPNS1]	2.93 ± 0.63	2.84 ± 0.64	–	–
LPVLRGFPAKYIYDPWNAPEGIQK [CRY1]	2.39 ± 0.17	2.28 ± 0.34	–	–
YGRIVEVLLMKDRETNKSRGFAFV [RBMX]	2.9 ± 0.44	2.48 ± 0.59	–	–
PPTQLEVNLEEIPGEGLLISWAFT [C2CD2L]	2.75 ± 0.41	3.01 ± 0.5	–	–
EDGRPSLGSPYGQPPRFPVPHNGS [PDLIM4]	4.8 ± 0.17	4.63 ± 0.26	–	–
ESSVPVTPSVPPPASQHSTPAGLP [FBF1]	5.04 ± 0.18	5.19 ± 0.17	–	–
SGEELHELFHTIDTHNTNNLDTEE [NECAB1]	5.12 ± 0.6	5.08 ± 0.68	–	–
DRLNEQEGVPSVFNPPPSRPLQVN [FAF2]	4.23 ± 0.28	4.25 ± 0.1	–	–
PDTRHPCSLGSSLVADYSDSESE [YJU2B]	–	–	5.39 ± 0.1	5.29 ± 0.13
PQQQHHKAKRNRTCRPPSSSESSS [ANKRD17]	4.86 ± 0.16	4.92 ± 0.29	–	–
MSHHPSGLRAGFSSTSYRRTFGPP [PRPH]	2.92 ± 0.23	2.94 ± 0.1	–	–
EFPYRMNHILECEFYLLELMDCCL [CCNC]	2.68 ± 0.31	2.84 ± 0.6	–	–
SIIHQMEKFSSSLHELSSRVEASH [FBF1]	2.72 ± 0.21	2.96 ± 0.2	–	–
VNQYVIRPGPSASAASSAAAGEPL [RNF208]	3.88 ± 0.22	3.96 ± 0.23	–	–
LSRLSVNSVTAGDYSRPLHISTFI [TSN]	2.42 ± 0.61	2.31 ± 0.24	–	–
LSFYNVTDRSHIYTFTDTFTEKLW [TRIM39]	2.52 ± 0.31	2.3 ± 0.32	–	–
ACLVSCFQQLMVETCSCGYYLHPL [SCNN1D]	2.91 ± 0.17	3.21 ± 0.19	–	–

Sequence	protein stability index [1]	protein stability index [2]	protein stability index (treatment: DMSO, c terminus: native)	protein stability index (treatment: MLN4924 1 uM, 8 h, c terminus: native)
PLESIDHSVTGFLCEPDPVHFSEA [ALG2]	4.48 ± 0.15	4.48 ± 0.025	–	–
ELIGACEFMKDRLYFATLRNRPKS [CDC14A]	2.1 ± 0.5	2.24 ± 0.19	–	–
KSVLKSDEEHMEEAITSASFLEQI [FAM189A2]	4.76 ± 0.31	4.85 ± 0.2	–	–
KEEEQSCEYETRLPGNHSTSQEIF [ZNF232]	5.02 ± 0.3	5 ± 0.13	–	–
LSQMGAQSSGKILLCPLCQEEEQA [TRIM15]	3.85 ± 0.5	4.39 ± 0.23	–	–
VLQENYTHLPKADIFALALTVVCA [WEE1]	2.69 ± 0.85	2.38 ± 0.27	–	–
ALEKLRSEMEEEKRQAVNKAVANM [ZMYND11]	4.42 ± 0.38	4.34 ± 0.36	–	–
AARVGLLQYSTQVHTEFTLRNFNS [MATN2]	2.37 ± 0.19	2.19 ± 0.28	–	–
IRQEFDKLREFLRVEEQAILDAMA [TRIM35]	2.91 ± 0.31	2.97 ± 0.69	–	–
EHLDNLRLNLTNTKQNFFSQTPIL [INTS3]	2.35 ± 0.28	2.48 ± 0.32	–	–
PQLSPGSGTPQAGTPSPSRSRDSN [RTN2]	5.2 ± 0.14	5.27 ± 0.18	–	–
PGNRTCTGTSKRYQLCRVQECPPD [ADAMTSL2]	3.61 ± 0.32	3.69 ± 0.045	–	–
RWDPVRRRFIQSCPIIRIPNRFLR [KLHDC10]	2.48 ± 0.42	2.49 ± 0.2	–	–
SQESALGNTVPAVEPGTPPLDILA [DNAAF3]	5.17 ± 0.15	5.14 ± 0.12	–	–
SMQCKVILLDGSEYTCDVEKRSRG [EPB41L3]	3.04 ± 0.29	3.61 ± 0.3	–	–
EDQWGKGTLTPRMTTDFDLSLDNS [TRIM9]	4.7 ± 0.18	4.9 ± 0.33	–	–
VEQPKGTEVVRDAVRKLKFARHIK [GULP1]	3.7 ± 0.11	3.77 ± 0.16	–	–
MSDYRGFGIGSEILKNLSQVAMRC [SAT1]	2.11 ± 0.48	2.46 ± 0.56	–	–
EMSKDANFGLRLVVQRCSGQKWMI [GALNT9]	2.2 ± 0.65	2.85 ± 1	–	–
QDSPLDLTVRKSQSEPSEQDGVLD [LCOR]	5.42 ± 0.32	5.35 ± 0.37	–	–
AFEAARDLDACALVRGHRRRLLRR [ZSWIM9]	4.5 ± 0.2	4.45 ± 0.21	–	–
